Source: the supplement of paper PMC7877785
± gives the uncertainty stated by the source.

Test: self-splicing fitness, log relative to wild type (ln ratio); higher = more splicing; Tetrahymena group I intron in knt gene, E. coli kanamycin selection, DiMSum; sequences stand for … in CUCUCU…GGAGGGAAAAGUUAUCAGGCAUGCACCUGGUAGCUAGUCUUUAAACCAAUAGAUUGCAUCGGUUUAAAAGGCAAGACCGUCAAAUUGCGGGAAAGGGGUCAACAGCCGUUCAGUACCAAGUCUCAGGGGAAACUUUGAGAUGGCCUUGCAAAGGGUAUGGUAAUAAGCUGACGGACAUGGUCCUAACCACGCAGCCAAGUCCUAAGUCAACAGAUCUUCUGUUGAUAUGGAUGCAGUUCACAGACUAAAUGUCGGUCGGGGAAGAUGUAUUCUUCUCAUAAGAUAUAGUCGGACCUCUCCUUAAUGGGAGCUAGCGGAUGAAGUGAUGCAACACUGGAGCCGCUGGGAACUAAUUUGUAUGCGAAAGUAUAUUGAUUAGUUUUGGAGUACUCGUGGUCG
Procedure, shortened: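 A randomised library covering all eight P1ex-region intron nucleotides was built with the intron in the knt kanamycin-resistance gene on pET-22b(+) and held in E. coli BL21(DE3). Cells were grown overnight at 37°C or 30°C on LB agar, with or without 25 μg/mL kanamycin, plus 100 μg/mL carbenicillin, 50 μM IPTG and 0.2% rhamnose, and pooled colonies were amplicon-sequenced on an Illumina HiSeq 2500. DiMSum fitness is the error-weighted combination of wild-type-normalised replicate fold changes, kanamycin versus none.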

Sequence	self-splicing fitness (ln) (30 °C)	self-splicing fitness (ln) (37 °C)
CAAUAGCAAUAUUACGUAAU	-3.35 ± 0.21	-1.92 ± 0.18
CAAUAGCAAUAUUACGUCAG	-1.95 ± 0.066	-1.12 ± 0.07
CAAUAGCAAUAUUACGUGAU	-3.98 ± 0.14	-2.5 ± 0.12
CACAAGCAAUAUUACGAAAC	–	-1.91 ± 0.25
CACAAGCAAUAUUACGAACC	-2.66 ± 0.47	-1.98 ± 0.36
CACAAGCAAUAUUACGACUG	-0.95 ± 0.046	0.337 ± 0.064
CACAAGCAAUAUUACGAGGC	-3.54 ± 0.16	-2.87 ± 0.19
CACAAGCAAUAUUACGCCCG	-0.276 ± 0.12	0.193 ± 0.15
CACAAGCAAUAUUACGCCUG	-1.87 ± 0.16	-0.812 ± 0.19
CACAAGCAAUAUUACGGAUU	-3.91 ± 0.2	-2.61 ± 0.2
CACAAGCAAUAUUACGGCCG	-0.104 ± 0.077	0.524 ± 0.1
CACAAGCAAUAUUACGGGUA	-1.26 ± 0.07	-0.601 ± 0.076
CACAAGCAAUAUUACGGGUG	-3.99 ± 0.1	-2.94 ± 0.11
CACAAGCAAUAUUACGGUAU	-3.8 ± 0.14	-2.35 ± 0.12
CACAAGCAAUAUUACGUGAC	-4.87 ± 0.34	-2.77 ± 0.2
CACAAGCAAUAUUACGUGCC	-3.26 ± 0.14	-2.48 ± 0.14
CACAAGCAAUAUUACGUGUA	-3.53 ± 0.13	-1.78 ± 0.093
CACAAGCAAUAUUACGUUUG	-2.89 ± 0.078	-2.14 ± 0.089
CACCAGCAAUAUUACGAAUC	-4.57 ± 0.31	-0.445 ± 0.18
CACCAGCAAUAUUACGAGUC	-4.09 ± 0.19	-1.74 ± 0.14
CACCAGCAAUAUUACGAGUU	-2.42 ± 0.075	-1.65 ± 0.087

Sequence	self-splicing fitness (ln) (30 °C)	self-splicing fitness (ln) (37 °C)
CACCAGCAAUAUUACGCAAC	-2.68 ± 0.48	-2.85 ± 0.28
CACCAGCAAUAUUACGCACU	-3.96 ± 0.21	-1.59 ± 0.12
CACCAGCAAUAUUACGCAUG	-1.29 ± 0.062	-0.787 ± 0.07
CACCAGCAAUAUUACGCGCG	-0.00123 ± 0.053	0.499 ± 0.069
CACCAGCAAUAUUACGCGGA	-2.85 ± 0.15	-0.595 ± 0.088
CACCAGCAAUAUUACGCGGC	-2.68 ± 0.21	-2.72 ± 0.29
CACCAGCAAUAUUACGCUAC	-5.01 ± 0.45	-2.1 ± 0.16
CACCAGCAAUAUUACGGAUG	-3.11 ± 0.12	-1.84 ± 0.12
CACCAGCAAUAUUACGGAUU	-2.05 ± 0.055	-1.36 ± 0.085
CACCAGCAAUAUUACGGCGA	-1.62 ± 0.061	-1.23 ± 0.063
CACCAGCAAUAUUACGGCGC	-2.3 ± 0.11	-1.5 ± 0.13
CACCAGCAAUAUUACGUACU	-3.08 ± 0.2	-2.21 ± 0.2
CACCAGCAAUAUUACGUAGU	-3.23 ± 0.075	-1.53 ± 0.079
CACCAGCAAUAUUACGUAUA	-4.42 ± 0.24	-2.33 ± 0.18
CACCAGCAAUAUUACGUCAC	-2.9 ± 0.15	-2.9 ± 0.3
CACCAGCAAUAUUACGUCGC	-3.1 ± 0.12	-2.28 ± 0.17
CACCAGCAAUAUUACGUGCA	-4.11 ± 0.17	-2.56 ± 0.15
CACCAGCAAUAUUACGUUCA	-3.07 ± 0.16	-2.15 ± 0.16
CACGAGCAAUAUUACGAUCA	-2.68 ± 0.22	-2.11 ± 0.19
CACGAGCAAUAUUACGAUGA	-3.21 ± 0.24	-2.17 ± 0.23
CACGAGCAAUAUUACGAUGC	-3.47 ± 0.37	-2.74 ± 0.29
